T1: ACOX-1.1 (Caenorhabditis elegans, UniProt O62140)
T1 construct: pET-16b-acox-1.1a, expressed in E. coli and purified, homodimer
T1 sequence (O62140 1-674): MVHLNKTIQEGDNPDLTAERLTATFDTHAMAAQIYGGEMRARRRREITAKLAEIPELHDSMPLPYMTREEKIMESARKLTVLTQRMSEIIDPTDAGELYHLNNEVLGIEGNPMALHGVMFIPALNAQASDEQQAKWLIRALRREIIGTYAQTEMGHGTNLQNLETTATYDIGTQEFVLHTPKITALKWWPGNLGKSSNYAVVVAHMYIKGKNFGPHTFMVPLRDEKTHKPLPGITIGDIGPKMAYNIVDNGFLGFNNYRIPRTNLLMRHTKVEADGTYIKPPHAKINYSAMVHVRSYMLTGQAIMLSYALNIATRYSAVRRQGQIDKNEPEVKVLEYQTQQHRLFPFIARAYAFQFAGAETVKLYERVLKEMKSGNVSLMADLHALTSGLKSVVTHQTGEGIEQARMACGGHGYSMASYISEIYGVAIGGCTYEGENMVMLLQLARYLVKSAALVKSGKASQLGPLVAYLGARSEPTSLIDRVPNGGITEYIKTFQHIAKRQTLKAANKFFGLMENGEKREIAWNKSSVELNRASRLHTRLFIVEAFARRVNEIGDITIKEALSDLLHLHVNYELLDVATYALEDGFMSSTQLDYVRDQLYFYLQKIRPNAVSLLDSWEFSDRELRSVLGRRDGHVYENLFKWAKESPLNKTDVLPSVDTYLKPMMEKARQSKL

B1: ACS-7 (Caenorhabditis elegans) (protein)
chain: MIFHGEQLENHDKPVHEVLLERFKVHQEKDPDNVAFVTAENEDDSLGFQQLGKKVLQISEWFVENGYKKGDVFLLASYNNWRCFAAALGAWRAGLIVSAAASQFTSFEMNYQIEDSQSQVILVDKHTLPVVQEACKNLKFVKQIISISANPPSPVIKFDVLTSRLVRNLKMPLIDPKNDIVFLPYSSGTTGKPKGVMISHLNFSMMLESSLRFFDANAKAIGLPPDFVLPYDLHFLPMYHAMGMFRTLLTSYRGTTQIMFTKFDMELMLKNIEKYSIMVLSLVPAIAVRMLNSPLLQKYDVSSLVSVTVGSAPFPESASKKLKQLLPNVNIVQGYGMTELTFATHLQSPGSPDGSVGRLVPGTSMKVKKEDGTLCGPHEIGELWIKGPQMMKGYWKKEQQTNELLDEHGFMRTGDIVYFDKNGETFICDRIKELIKVNAKQVAPAELESVILEHDDVADVCVFGVDDASSGERPVACVVSKRGRDMETSKAIMKHINQKLARYKHIKEIEFVSEIMRTGTGKLLRRAMKKAFLDAKKAKL
notes: full-length from cDNA library, pET-22b (NdeI/XhoI), His-tagged, E. coli BL21(DE3), Ni-NTA and Superdex 200

Columns and labels:
ACOX-1.1 = biological target: T1, ACOX-1.1; experiment: LC-MS assay with MAOC-1, DHS-28, DAF-22; peroxidase-coupled H2O2 assay; format: biochemical; details: LC-MS: 40 μM substrate, 20 μM FAD, 20 μM NAD+, 200 μM CoA, pH 7.5, 30 °C; coupled: 24 µM substrate, ~23 °C
purified protein = substrate: C[C@H](CCCCCCC(=O)O)O[C@@H]1O[C@@H](C)[C@H](OC(=O)c2c[nH]c3ccccc23)C[C@H]1O; experiment: purified protein; format: biochemical, Caenorhabditis elegans; details: 7.5 mM ATP, 1 mM CoA, 10 mM MgCl2, 1.6 mM Triton X-100, pH 7.4, 22 °C

| Molecule | LC-MS assay with MAOC-1, DHS-28, DAF-22; peroxidase-coupled H2O2 assay (ACOX-1.1) | Km (purified protein) [µM] | kcat (purified protein) [s⁻¹] |
| --- | --- | --- | --- |
| C[C@H](CCCCCCC(=O)SCCNC(=O)CCNC(=O)[C@H](O)C(C)(C)COP(=O)(O)OP(=O)(O)OC[C@H]1O[C@@H](n2cnc3c(N)ncnc32)[C@H](O)[C@@H]1OP(=O)(O)O)O[C@@H]1O[C@@H](C)[C@H](OC(=O)c2c[nH]c3ccccc23)C[C@H]1O [IC-asc-C9-CoA] | It also showed activity towards IC-asc-C9-CoA, but less than towards IC-asc-C7-CoA | – | – |
| B1 | – | 14.5 ± 3.0 | 0.53 ± 0.08 |

From publication PMC5986272, “Biosynthetic tailoring of existing ascaroside pheromones alters their biological function in C. elegans” (eLife, 2018)
